One molecule from patent US20240182526A1 (UNIVERSITY OF SOUTHERN CALIFORNIA, published 2024) can be followed below.

The target in the experiment is T1, SRC, endogenous in mouse splenocytes (mouse, UniProt P05480 2-535).
T1 construct: Detected as pSRC (pY416-SRC antibody) in gp130 co-immunoprecipitates; also called pSRC; c-SRC
In words: co-immunoprecipitation, F814 mouse splenocytes with or without OSM.

B1: gp130 F814 variant of the CRISPR/Cas9 F814 mouse (SEQ ID NO:27 with F812 substitution) (receptor)
chain: QLLEPCGYIYPEFPVVQRGSNFTAICVLKEACLQHYYVNASYIVWKTNHAAVPREQVTVINRTTSSVTFTDVVLPSVQLTCNILSFGQIEQNVYGVTMLSGFPPDKPTNLTCIVNEGKNMLCQWDPGRETYLETNYTLKSEWATEKFPDCQSKHGTSCMVSYMPTYYVNIEVWVEAENALGKVSSESINFDPVDKVKPTPPYNLSVTNSEELSSILKLSWVSSGLGGLLDLKSDIQYRTKDASTWIQVPLEDTMSPRTSFTVQDLKPFTEYVFRIRSIKDSGKGYWSDWSEEASGTTYEDRPSRPPSFWYKTNPSHGQEYRSVRLIWKALPLSEANGKILDYEVILTQSKSVSQTYTVTGTELTVNLTNDRYVASLAARNKVGKSAAAVLTIPSPHVTAAYSVVNLKAFPKDNLLWVEWTPPPKPVSKYILEWCVLSENAPCVEDWQQEDATVNRTHLRGRLLESKCYQITVTPVFATGPGGSESLKAYLKQAAPARGPTVRTKKVGKNEAVLAWDQIPVDDQNGFIRNYSISYRTSVGKEMVVHVDSSHTEYTLSSLSSDTLYMVRMAAYTDEGGKDGPEFTFTTPKFAQGEIEAIVVPVCLAFLLTTLLGVLFCFNKRDLIKKHIWPNVPDPSKSHIAQWSPHTPPRHNFNSKDQMYSDGNFTDVSVVEIEANNKKPCPDDLKSVDLFKKEKVSTEGHSSGIGGSSCMSSSRPSISSNEENESAQSTASTVQYSTVVHSGYRHQVPSVQVFSRSESTQPLLDSEERPEDLQLVDSVDGGDEILPRQPFFKQNCSQPEACPEISHFERSNQVLSGNEEDFVRLKQQQVSDHISQPYGSEQRRLFQEGSTADALGTGADGQMERFESVGMETTIDEEIPKSYLPQTVRQGGYMPQ
notes: Endogenous protein in lysates of F814 mouse splenocytes; also called Y814 mutant; gp130 Y814-deficient
As for B1, the binding result was “no binding”.
